The target in data set [1] is T1, VEGF165 (VEGF-A isoform 165) (UniProt P15692-4 27-191). The data set can be described thus: EMSA. Background: In EMSA bound probe runs differently from free probe, usually more slowly.
The target of data set [2] is T1, VEGF165 (VEGF-A isoform 165). The data set can be described thus: EMSA. This is another data set of the same source.

Read-outs that look alike come from different tables or passages of the source.

For TGTGGGGGTGGACGGGCCGGGTAGA (structured_DNA) [V7t1 not-annealed (about 73% dimer, 26% monomer)], the binding result in data set [1] is “binds”.
As for TGTGGGGGTGGACGGGCCGGGTAGA (structured_DNA) [V7t1 dimer (purified SE-HPLC peak 1)], the binding result in data set [2] is listed as “binds”.
